Measured values reported in the DeepSol protein solubility set.

experiment: soluble on expression in E. coli; label from the status in PepcDB or PDB records

Sequence | soluble on expression in E. coli
APAADAAQAHDPLSVQTGSDIPASVHMPTDQQRDYIKREVMVPMRDGVKLYTVIVIPKNARNAPILLTRTPYNAKGRANRVPNALTMREVLPQGDDVFVEGGYIRVFQDIRGKYGSQGDYVMTRPPHGPLNPTKTDETTDAWDTVDWLVHNVPESNGRVGMTGSAYEGFTVVMALLDPHPALKVAAPESPMVDGWMGDDWFHYGAFRQGAFDYFVSQMTARGGGNDIPRRDADDYTNFLKAGSAGSFATQAGLDQYPFWQRMHAHPAYDAFWQGQALDKILAQRKPTVPMLWEQGLWDQEDMWGAIHAWQALKDADVKAPNTLVMGPWRHSGVNYNGSTLGPLEFEGDTAHQYRRDVFRPFFDEYLKPGSASVHLPDAIIYNTGDQKWDYYRSWPSVCESNCTGGLTPLYLADGHGLSFTHPAADGADSYVSDPAHPVPFISRPFAFAQSSRWKPWLVQDQREAESRPDVVTYETEVLDEPVRVSGVPVADLFAATSGTDSDWVVKLIDVQPAMTPDDPKMGGYELPVSMDIFRGRYRKDFAKPEALQPDATLHYHFTLPAVNHVFAKGHRIMVQIQSSWFPLYDRNPQKFVPNIFDAKPADYTVATQSIHHGGKEATSILLPVVKQKLGPEQKLISEEDLNSAVDHHHHHH | soluble
MRGSPRTKDRLAALKAAVSDEEDVEEVAVQVDSGGGFMEEFFEQVEEIRAMIDKISDNVDAVKKKHSDILSAPQTDDQMKEELEELMTDIKRTANKVRGKLKTIELNIEQEEHSNKSSADLRIRKTQYSTISRKFVEVMSDYNTTQIDYRDRCKARIKRQMEITGRTTTNEELEDMLESG | soluble
MGHHHHHHSHMDCCASRGCSVPTGPATTICSSDKSCRCGVCLPSTCPHTVWLLEPTCCDNCPPPCHIPQPCVPTCFLLNSCQPTPGLETLNLTTFTQPCCEPCLPRGC | not soluble
SQEQAQTTDWRATLKTIRNGVHKIDTYLNAALDLLGGEDGLCQYKCSDGSKPFPRYGYKPSPPNGCGSPLFGVHLNIGIPSLTKCCNQHDRCYETCGKSKNDCDEEFQYCLSKICRDVQKTLGLTQHVQACETTVELLFDSVIHLGCKPYLDSQRAACRCHYEEKTDL | soluble
MPKSVKVIAVTPEEREAVMSIDFGGAYDFTSPGFNLFEVREKYSEPMDAAAGVVYNLLWNSGLPEKFGCREQTLLNFILQCRRRYRRVPYHNFYHVVDVCQTLHTYLYTGKASELLTELECYVLLVTALVHDLDHMGVNNSFYLKTDSPLGILSSASGNNSVLEVHHCSLAIEILSDPAADVFEGLSGQDVAYAYRALIDCVLATDMARHGDLSRVFDDMAKAGYDSNDQESRRLVMETLIKAGDVSNVTKPFETSRMWAMAVTEEFYRQGDMEKEKGVEVLPMFDRSKNNELARGQIGFIDFVAGKFFRDIVGNLFHGMQWCVDTVNSNRAKWQEILDGRRDSIRPSIV | soluble
MAHHHHHHMQETQELRCATTQMAPAVIFPLPPPLRGSYIDRKPTAASFNEHHATASFRHHMIASADVSHRPRHFYFASGTRNDTGTRSVKEGERKQLKQQTNVEVDSVAYGDQLDELSARWAAKFYGQVTFGPRNYPYPSSRWLARRFQMKKHRIIKRFRFRRYKLAAVANLPFAKMIRVGMLPELKSSKTKRGDVVDPTLSGQLVSAVKNTGEKRKGQRTRPKSKYQV | soluble
MAHHHHHHMADYEPEDNLEQNSTLSSESIQEDISSLLRTKLAGEQWNPAKVDGWVEDIVNSILTELAELKKPYKYIVTCVFMQRTGAALSVGFISLWDNTKDGMVHVPFENDSFHCLVTVYFLKND | not soluble
MDPAKVNTVDEDIKFKEVPGITNILLLSSDARPGEDVSRSDSIMILTIDNINKKLKVTSLMRDMLVKIDGHGEEKLNHAFAYGGPTKTIETIQNNFGIKLNNYVIVDFNAFVKVIDAINGIEVTVKDYELDELNKYILDGGGSEEDLLPSPGTYNLNGYQALSYARIRKVGNGEYERTERQRAVLQIALEKVKDMSTVKLVSLLNELFPYVKTNISLGNAMDYGFTALNVGKKCNFEIEQFRVPLDSISKGGIINNKGWVFVIDKVETSKALQEFIFNDNKNYEPDTSNFDSIIEQYFNDYDIKDDTTHPLEHHHHHH | soluble
MAHHHHHHMHNGVKTFHRVGFVGSKWKEVKNRGIARFIEAFAADTATALNVTPQAVHIADYAVADDIVVDFYVTHPGTDSAEVIDGKLEQFDYQRVWDLYGIPSEVDEQQRVVPCVMKCSNASRRTSPSSTCRLRMPDTNSVSQVDSFCPRCQRRLSSKQEFLQPDESSGWHPQPMHSHTSSISDAVRTALMEDSYSAIRKPSSTPPLPHLAHRYAPHQKWKGKLRSSRARIKRVVYHSCASHR | not soluble
MTIYFLFGKTGSGKSYIGELLRQLSIVHIDGDNHITQKMRDCLIEDEQMTPEMIDEFVDVLIDVIKTQKTKTPNESFVISQAMYLDKHRLKLLNAIPELEFVMIDVIPVLRASRITNRFRNQESKVSLRYATRMDAFFEYPSHETIRLENNQSSDETLIEQIREKMPALFNMESKEELNSGIQLQFALEHHHHHH | soluble
MFLRIDRLQIELPMPKEQDPNAAAAVQALLGGRFGEMSTLMNYMYQSFNFRGKKALKPYYDLIANIATEELGHIELVAATINSLLAKNPGKDLEEGVDPESAPLGFAKDVRNAAHFIAGGANSLVMGAMGEHWNGEYVFTSGNLILDLLHNFFLEVAARTHKLRVYEMTDNPVAREMIGYLLVRGGVHAAAYGKALESLTGVEMTKMLPIPKIDNSKIPEAKKYMDLGFHRNLYRFSPEDYRDLGLIWKGASPEDGTEVVVVDGPPTGGPVFDAGHDAAEFAPEFHPGELYEIAKKLYEKAK | soluble
SELSQLLNEIRANYEKILTRNQIETVLSTRIQLEEDISKKMDKDEEALKAAQAELKEARRQWHHLQVEIESLHAVERGLENSLHASEQHYQMQLQDLETVIEGLEKELQEVRRGIEKQLQEHEMLLNTKMRLEQEIATYRHLLEKEEIRYYGCIQGGKKDKKPTTSRVGFVLPSAIINEISFTTKVPQKYENENVETVTKQAILNGSIVKESTEAHGTIQTEKVDEVIKEWEGSFFKDNPRLRKKSVSLRFDLHLAATDEGCLETKQDNLPDIEVRLIMRRSCSIPSIKPPSTAN | soluble
MSLTKEPILELADMSDFEQLIRQHPEKIIILDFYATWCGPCKAIAPLYKELATTHKGIIFCKVDVDEAEDLCSKYDVKMMPTFIFTKNGDAIEALEGCVEDELRQKVLEHVSAQ | not soluble
AIAESTKSNDIPILRNVSDSFSDHYGKYLQRCGIFVPKDGDSSGPDAYVVFHNGQTRYVVAFSFTFYHKTEFSKRDIEKEAEQFFQEVISVLNDGSPSSVQLCFQFVVVCTRYDRSVVFSSEEQNIVEDASYLVTEHSAGSTLNESRRSCLQLVVVSQRNLERFLGRENFDILRKIGKASREEFRKDFSVWCKTVFESMSDEYVSPLEAKPFNVTLRVARNIRPRTNEENRMQMEGFQTAMQVEEGNTRGEQRVAASSSLSSSFDWNTFLREYCGLSEEDVAYCLPKVEDIDMDELPAVTKEILRDLGIDKPALRLKIRSSIRSYLANER | soluble
MGHHHHHHSHMEVVLPLDPAVPAPLCPHGPTLLFVKVTQGKEETRRFYACSACRDRKDCNFFQWEDEKLSGARLAAREAHNRRCQPPLSRTQCVERYLKFIELPLTQRKFCQTCQQLLLPDDWGQHSEHQVLGNVSITQLRRPSQLLYPLENKKTNAQYLFADRSCQFLVDLLSALGFRRVLCVGTPRLHELIKLTASGDKKSNIKSLLLDIDFR | not soluble
MGPLLVWHRGDLRLHDHPALLEALARGPVVGLVVLDPNNLKTTPRRRAWFLENVRALREAYRARGGALWVLEGLPWEKVPEAARRLKAKAVYALTSHTPYGRYRDGRVREALPVPLHLLPAPHLLPPDLPRAYRVYTPFSRLYRGAAPPLPPPEALPKGPEEGEIPREDPGLPLPEPGEEAALAGLRAFLEAKLPRYAEERDRLDGEGGSRLSPYFALGVLSPRLAAWEAERRGGEGARKWVAELLWRDFSYHLLYHFPWMAERPLDPRFQAFPWQEDEALFQAWYEGKTGVPLVDAAMRELHATGFLSNRARMNAAQFAVKHLLLPWKRCEEAFRHLLLDGDRAVNLQGWQWAGGLGVDAAPYFRVFNPVLQGERHDPEGRWLKRWAPEYPSYAPKDPVVDLEEARRRYLRLARDLARG | soluble
MEHIRRVAELAREIARNNGLDPERAYLAGLLHDAARDLPEEELRRLAPPENEVEEAHPLALHGRAARALAASWGVRDEEVLEAIEGHVYGVDPENGIGMALYVADVSEPGRGVNEEIRELALAGRLKEAYRLAVRNKVHYLKAKKIPIHPRTLEVYHSL | soluble
MKNKPLGLWLMSLLVLVGCKANQDDLTSYVAQVEREARKEVTKLKPILEFEATPYQQHKGREPFVLPKEALVQNQPLAKADCWQPVPRAKNGPLERYPLHQLRLKGVMSSGGSISALVQTPAGSVVKVKAGQYVGINNGKVTRVDDNYLLINETLPDGLGCWNQRNVKLALK | not soluble
MGSDKIHHHHHHMENIPFLRASTVPVIEYLDELKEIDASHIYTNYGPINQRFEQTIMSGFFQNRGAVTTVANATLGLMAAIQLKKRKKGKYALMPSFTFPATPLAAIWCGLEPYFIDISIDDWYMDKTVLWDKIEELKEEVAIVVPYATFGSWMNLEEYEELEKKGVPVVVDAAPGFGLMNGGMHYGQDFSGMIIYSFHATKPFGIGEGGLIYSKNEEDIQRIKRMGNFGFDTNRECTMMGFNCKMSEYAAAIGIATMKKWDDKLKERTRISEWYKQLLQSNGLMKKGWQLQKTEAVIQQFMPILCPEEVRNKQVIEDLKKQKIEARLYFSPSCHQQVLFRNYKSTDLTRTNKIAKRIVSLPLWEGMTKEIVEQIVICLGQKVVSADE | not soluble
MDSPRVERFRAQVTDTFVPNLTWAMAPVTATINLFQDFQSYQRLAQQNRELRSELRRMQAWKEAALQLEQENARLLDLNNVRLDPRLTYITGVVLADSGSPFRQSVLINVGSRDGLVDGWATMDGIGLVGRISGVADKTARVILLTDASSRIPAIIQPSGQRVIVSGDNSAAPFIDFLEDSDLVKPGHRVISSGDGGVFPAGLLIGQVAADPTGKLRVIMAADYQRLEFLRVLRHHGTTTVSDSAQIIGPQLPVAEATQLEHHHHHH | not soluble
MSLSKSRKIDVHAHVLPKNIPDFQEKFGYPGFVRLDHKEDGTTHMVKDGKLFRVVEPNCFDTETRIADMNRANVNVQCLSTVPVMFSYWAKPADTEIVARFVNDDLLAECQKFPDRLVPLGTLPMNDVQRAVEEVKRCVSMGIKGFEVGSHVAEKSLDHRDFWPLYKICEELSVVLFVHPWDMHMWDGRLDKYWMPWLVGMPSETAQAICSVLMGNILVLFPKLKLCFAHGGGAYPQIRGRVSHGWNVRPDLCAGKCKVAPNKLDGLLWTDSLVHDPKALELLINTVGKEHIVLGTDYPFPLGELEVGRVVEEYKPFSAKDREDLLWKNAVKMLDIDENLLFNKDFEGHHHHHH | not soluble
MAHHHHHHMGQSKTKLQVVMCGLDNSGKTTIINQVKPAQSSSKHITATVGYNVETFEKGRVAFTVFDMGGAKKFRGLWETYYDNIDAVIFVVDSSDHLRLCVVKSEIQAMLKHEDIRRELPGGGRVPFLFFANKMDAAGAKTAAELVEILDLTTLMGDHPFVIFASNALKGTGVHEGFSWLQETASRQSGKAGTKRG | soluble
MLRLIPNKGLKKTINTLTVAEKARINHQDIEELLLRYQRSCPEDAARNITEVTNPNQEKHEGLRVFVIQTWMALMVANSYGLETYQTLKTFMDRQGYKTQPDSTYMATEQKD | not soluble
SKREMPSMYPQAKGILSALKEKGIEMAIASRSPTSDIANTFLDKLNIKPMFVAKEIYSSWSHKTEHFQKIHTRTGVPFTAMLFFDDEDRNIKSVSKMGVTSILVGDGVTLGAFRQGLTEFTQN | not soluble
NEHLGGIYDYLRTRRMQTLTELERTTTIETKTTREAIPETEAKADYRRQKEVAKQLRTLERTVATCEERIGKLESELQAIEMLLQDPKHATDANLFERYAGMKQELEKAMEDWEQASEALSEAQG | not soluble
